Data as given in article PMC4148193, “Chromatin Insulator Factors Involved in Long-Range DNA Interactions and Their Role in the Folding of the Drosophila Genome” (PLoS Genetics, 2014).

Experiments:
CP190-BTB/POZ = biological target: T1, CP190-BTB/POZ (Drosophila, UniProt Q24478 1-134); test: fluorescence anisotropy; FA/FCS: 30 mM Tris/HCl pH 7.5, 100 mM NaCl, 20 uM ZnSO4, 5 mM mercaptoethanol, 0.01 mg/ml BSA, 0.004% Tween20, 2.5 nM DNA; EMSA: 150 mM NaCl, 30 mM Tris/HCl pH; conditions: protein: recombinant; tags: His; chain copies: 2; blunt
T1 sequence: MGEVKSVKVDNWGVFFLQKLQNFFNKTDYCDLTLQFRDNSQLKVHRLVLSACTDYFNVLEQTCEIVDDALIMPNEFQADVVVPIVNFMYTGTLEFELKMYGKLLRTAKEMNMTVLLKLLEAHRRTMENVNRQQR

Chromator-C = biological target: T2, Chromator-C (Drosophila, UniProt Q86BS3 601-926); test: as above; conditions: protein: recombinant; tags: N-term 6xHis; blunt
T2 sequence: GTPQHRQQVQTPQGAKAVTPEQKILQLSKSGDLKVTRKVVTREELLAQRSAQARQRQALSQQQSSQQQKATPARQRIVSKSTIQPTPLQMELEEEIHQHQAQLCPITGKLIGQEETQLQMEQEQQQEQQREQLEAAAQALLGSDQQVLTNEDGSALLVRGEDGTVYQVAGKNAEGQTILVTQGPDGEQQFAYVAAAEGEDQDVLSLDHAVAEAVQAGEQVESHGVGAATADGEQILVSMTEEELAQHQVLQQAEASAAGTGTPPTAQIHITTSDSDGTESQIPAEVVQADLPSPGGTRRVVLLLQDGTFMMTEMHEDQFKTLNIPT

CP190 = biological target: T3, CP190 (Drosophila, UniProt Q24478 1-1096); test: competition; unlabeled DNAS vs 2.5 nM Cy3B-DNAS, 200 nM CP190; FA/FCS: 30 mM Tris/HCl pH 7.5, 100 mM NaCl, 20 uM ZnSO4, 5 mM mercaptoethanol, 0.01 mg/ml BSA, 0.004% Tween20, 2.5 nM DNA; EMSA: 150 mM NaCl, 30 mM Tris/HCl pH; conditions: protein: recombinant; tags: N-term 6xHis; blunt
T3 sequence: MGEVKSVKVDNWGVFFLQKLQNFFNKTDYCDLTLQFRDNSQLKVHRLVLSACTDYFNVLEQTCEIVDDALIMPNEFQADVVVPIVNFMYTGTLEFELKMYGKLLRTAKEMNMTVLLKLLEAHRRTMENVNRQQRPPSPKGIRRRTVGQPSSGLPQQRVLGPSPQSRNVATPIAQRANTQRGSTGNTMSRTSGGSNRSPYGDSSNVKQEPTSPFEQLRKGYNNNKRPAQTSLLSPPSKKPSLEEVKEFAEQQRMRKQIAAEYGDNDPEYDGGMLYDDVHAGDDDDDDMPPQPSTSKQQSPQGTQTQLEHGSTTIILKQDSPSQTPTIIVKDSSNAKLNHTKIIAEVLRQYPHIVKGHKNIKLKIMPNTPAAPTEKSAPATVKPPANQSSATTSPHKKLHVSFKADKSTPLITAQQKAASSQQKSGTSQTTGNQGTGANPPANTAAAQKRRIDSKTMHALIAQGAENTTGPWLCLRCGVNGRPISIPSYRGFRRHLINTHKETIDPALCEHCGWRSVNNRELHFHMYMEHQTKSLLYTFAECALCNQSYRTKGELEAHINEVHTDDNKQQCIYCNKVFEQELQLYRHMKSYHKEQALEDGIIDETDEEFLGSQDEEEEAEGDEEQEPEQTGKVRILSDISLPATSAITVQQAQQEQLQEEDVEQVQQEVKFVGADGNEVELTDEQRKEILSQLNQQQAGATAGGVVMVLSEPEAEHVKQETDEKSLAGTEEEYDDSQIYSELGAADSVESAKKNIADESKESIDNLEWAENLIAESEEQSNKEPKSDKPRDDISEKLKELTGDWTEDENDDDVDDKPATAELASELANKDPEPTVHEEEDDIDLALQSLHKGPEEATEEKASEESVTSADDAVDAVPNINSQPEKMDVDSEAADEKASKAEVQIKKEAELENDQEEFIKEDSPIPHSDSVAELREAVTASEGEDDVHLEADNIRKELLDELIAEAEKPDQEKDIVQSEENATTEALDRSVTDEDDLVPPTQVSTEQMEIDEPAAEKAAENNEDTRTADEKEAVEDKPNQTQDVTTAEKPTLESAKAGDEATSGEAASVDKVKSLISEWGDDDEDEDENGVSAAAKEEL

B1: DNAS (dsDNA)
DNA 1: AGAAGTCAGCGCGATAGCATCGATATTTTCGTGACACGCTTGTCATCCGATAGGTAGT
DNA 2: ACTACCTATCGGATGACAAGCGTGTCACGAAAATATCGATGCTATCGCGCTGACTTCT
**Q.** Does B1 bind (CP190-BTB/POZ)?
**A.** Result: no binding

**Q.** Does B1 bind (Chromator-C)?
**A.** Result: no binding

**Q.** What about the Ki (CP190) of the same binder?
**A.** The Ki was 17 ± 4 nM.
